{
  "source": "paper PMC3192115",
  "about": "“Analysis of RNA Binding by the Dengue Virus NS5 RNA Capping Enzyme”",
  "key": {"[1]": {"biological_target": "T1, NS5 capping enzyme WT (West Nile) (West Nile virus) (UniProt Q9Q6P4)", "T1 sequence": "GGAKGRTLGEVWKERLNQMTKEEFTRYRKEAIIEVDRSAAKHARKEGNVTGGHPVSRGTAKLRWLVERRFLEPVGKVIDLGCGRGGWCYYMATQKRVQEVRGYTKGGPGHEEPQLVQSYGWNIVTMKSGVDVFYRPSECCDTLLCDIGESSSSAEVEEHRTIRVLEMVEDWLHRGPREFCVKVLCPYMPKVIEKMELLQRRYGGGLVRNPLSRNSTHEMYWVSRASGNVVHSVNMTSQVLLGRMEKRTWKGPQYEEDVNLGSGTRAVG", "experiment": "fluorescence polarization", "conditions": "5' diphosphate"}, "[2]": {"biological_target": "T2, NS5 N-terminal capping enzyme WT (dengue 2) (Dengue virus type 2, UniProt P29990 2492-2758)", "T2 sequence (P29990 2492-2758)": "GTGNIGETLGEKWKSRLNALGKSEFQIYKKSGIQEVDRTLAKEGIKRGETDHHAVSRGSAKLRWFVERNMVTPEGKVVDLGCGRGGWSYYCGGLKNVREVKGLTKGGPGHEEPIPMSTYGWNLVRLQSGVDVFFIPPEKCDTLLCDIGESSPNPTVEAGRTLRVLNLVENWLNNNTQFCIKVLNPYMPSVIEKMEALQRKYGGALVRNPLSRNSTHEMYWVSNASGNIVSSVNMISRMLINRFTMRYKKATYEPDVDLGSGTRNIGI", "experiment": "fluorescence polarization", "conditions": "protein: recombinant; tags: His; label: 3' FAM"}, "[3]": {"biological_target": "NS5 capping enzyme WT (yellow fever) (Yellow fever virus, UniProt P03314 2507-2774)", "sequence (P03314 2507-2774)": "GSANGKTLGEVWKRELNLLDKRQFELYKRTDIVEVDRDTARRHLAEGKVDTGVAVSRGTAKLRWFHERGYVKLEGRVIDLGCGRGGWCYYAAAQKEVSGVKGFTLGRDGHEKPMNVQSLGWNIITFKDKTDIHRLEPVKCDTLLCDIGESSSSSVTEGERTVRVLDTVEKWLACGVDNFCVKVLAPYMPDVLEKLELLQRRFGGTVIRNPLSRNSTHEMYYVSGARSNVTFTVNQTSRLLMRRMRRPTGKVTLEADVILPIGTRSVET", "experiment": "fluorescence polarization", "conditions": "protein: recombinant; label: 3' FAM"}, "[4]": {"biological_target": "T2, NS5 N-terminal capping enzyme WT …", "experiment": "fluorescence polarization; Table 1 gives 3.7 uM, SD 217 nM", "conditions": "protein: recombinant; tags: His; label: 3' FAM"}, "[5]": {"biological_target": "T2, NS5 N-terminal capping enzyme WT …", "experiment": "fluorescence polarization; mock control for GTP experiment", "conditions": "protein: recombinant; tags: His; label: 3' FAM"}},
  "note": "Where “and” joins values, the source holds several entries; their conditions need not be identical. Equal values may be shown once.",
  "data": [
    {"molecule": "AGUAA [ppAGUAA-FAM]", "values": [
      {"measurement": "Kd", "setting": "[1]", "value": 136, "unit": "nM"}
    ]},
    {"molecule": "AGUAA (ssRNA, 5' monophosphate)", "note": "[pAGUAA-FAM]", "values": [
      {"measurement": "Kd", "setting": "[2]", "value": "967 ± 88", "unit": "nM"}
    ]},
    {"molecule": "AGUAA (ssRNA, 5' diphosphate)", "note": "[ppAGUAA-FAM]", "values": [
      {"measurement": "Kd", "setting": "[3]", "value": "420 ± 20", "unit": "nM"},
      {"measurement": "Kd", "setting": "[2]", "value": "187 nM and ~200 nM"}
    ]},
    {"molecule": "AGUAA (ssRNA, no 5' phosphate)", "note": "[AGUAA-FAM]", "values": [
      {"measurement": "Kd", "setting": "[4]", "value": "3800 ± 200", "unit": "nM"},
      {"measurement": "Kd", "setting": "[5]", "value": 3500, "unit": "nM"}
    ]}
  ]
}
